Assay results from publication PMC3514216, “SRC Homology 2 Domain Binding Sites in Insulin, IGF-1 and FGF receptor mediated signaling networks reveal an extensive potential interactome” (Cell Communication and Signaling : CCS, 2012).
Residue numbers refer to the chain shown, from its start. Non-standard residues stand in square brackets, D forms with d. No end group written: not given here. pY = N[C@@H](Cc1ccc(OP(=O)(O)O)cc1)C(=O)O

T1: GST-Abl2 SH2 domain (human, UniProt P42684 173-263)
T1 construct: SH2 domain of Abl2; source: E. coli BL21, purified (glutathione sepharose, NAP-10)
T1 sequence (looked up): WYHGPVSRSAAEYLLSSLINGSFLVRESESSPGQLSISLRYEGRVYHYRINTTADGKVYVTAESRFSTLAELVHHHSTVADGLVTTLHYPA

T2: GST-Ship2 SH2 domain (human, UniProt O15357 21-117)
T2 construct: SH2 domain of Ship2; source: E. coli BL21, purified (glutathione sepharose, NAP-10)
T2 sequence (looked up): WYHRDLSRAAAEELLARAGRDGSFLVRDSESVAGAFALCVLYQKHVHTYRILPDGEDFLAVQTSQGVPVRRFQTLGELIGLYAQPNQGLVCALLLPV

T3: GST-Shc1 SH2 domain (human, UniProt P29353 488-579)
T3 construct: SH2 domain of Shc1; source: E. coli BL21, purified (glutathione sepharose, NAP-10)
T3 sequence (looked up): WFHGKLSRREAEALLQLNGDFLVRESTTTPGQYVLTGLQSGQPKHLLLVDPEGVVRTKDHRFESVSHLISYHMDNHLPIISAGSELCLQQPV

T4: GST-Tenc1 SH2 domain (human, UniProt Q63HR2 1140-1247)
T4 construct: source: E. coli BL21, purified (glutathione sepharose, NAP-10)
T4 sequence (looked up): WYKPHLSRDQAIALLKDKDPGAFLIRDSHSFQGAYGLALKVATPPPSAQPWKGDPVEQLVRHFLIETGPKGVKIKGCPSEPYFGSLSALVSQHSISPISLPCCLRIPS

T5: GST-Abl1 SH2 domain (human, UniProt P00519 127-217)
T5 construct: SH2 domain of Abl1; source: E. coli BL21, purified (glutathione sepharose, NAP-10)
T5 sequence (looked up): T1 sequence (looked up) with S9N, L18G, L35R, T53A, A54S, V58L, T61S, A62S, S67N, V84I

T6: GST-Vav1 SH2 domain (human, UniProt P15498 671-765)
T6 construct: SH2 domain of Vav1; source: E. coli BL21, purified (glutathione sepharose, NAP-10)
T6 sequence (looked up): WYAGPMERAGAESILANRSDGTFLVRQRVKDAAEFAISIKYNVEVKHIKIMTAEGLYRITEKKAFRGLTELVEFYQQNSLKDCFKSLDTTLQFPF

T7: GST-Sh2d1b SH2 domain (human, UniProt O14796 5-101)
T7 construct: SH2 domain of Sh2d1b (Eat-2); also called Eat-2; source: E. coli BL21, purified (glutathione sepharose, NAP-10)
T7 sequence (looked up): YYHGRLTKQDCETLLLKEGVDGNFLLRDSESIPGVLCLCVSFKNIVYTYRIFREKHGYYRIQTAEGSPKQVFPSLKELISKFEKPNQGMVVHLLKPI

T8: GST-Sh3bp2 SH2 domain (human, UniProt P78314 457-555)
T8 construct: SH2 domain of Sh3bp2; source: E. coli BL21, purified (glutathione sepharose, NAP-10)
T8 sequence (looked up): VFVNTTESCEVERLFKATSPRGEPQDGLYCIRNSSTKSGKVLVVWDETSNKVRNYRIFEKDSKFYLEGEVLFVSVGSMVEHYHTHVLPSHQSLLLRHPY

T9: GST-Itk SH2 domain (human, UniProt Q08881 239-338)
T9 construct: SH2 domain of Itk; source: E. coli BL21, purified (glutathione sepharose, NAP-10)
T9 sequence (looked up): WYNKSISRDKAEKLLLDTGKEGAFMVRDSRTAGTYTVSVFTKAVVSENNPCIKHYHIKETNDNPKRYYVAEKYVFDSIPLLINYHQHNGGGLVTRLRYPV

B1: p130Cas (Y234) peptide EQDEYDIPRHL, SPOT array (peptide)
peptide: EQDE[pY]DIPRHL
modifications: also: membrane-bound on SPOT array
notes: p130Cas (BCAR1) around Y234; source: synthetic peptide, SPOT synthesis on cellulose membrane
B2: p130Cas (Y362) phosphopeptide AEDVpYDVPPPA, Rhodamine B-labelled (peptide)
peptide: AEDV[pY]DVPPPA
modifications: not fully specified (N-terminus); also: Rhodamine B label, site not given here
notes: p130Cas (BCAR1) around Y362; source: synthetic peptide (FMOC chemistry), purified by LC/MS
B3: IRS-1 (Y896) phosphopeptide SPGEpYVNIEFG, Rhodamine B-labelled (peptide)
peptide: SPGE[pY]VNIEFG
modifications: also: Rhodamine B label, site not given here
notes: IRS-1 around Y896; source: synthetic peptide (FMOC chemistry), purified by LC/MS
B4: IRS-1 (Y1179) phosphopeptide NGLNpYIDLDLV, Rhodamine B-labelled (peptide)
peptide: NGLN[pY]IDLDLV
modifications: not fully specified (N-terminus); also: Rhodamine B label, site not given here
notes: IRS-1 around Y1179; source: synthetic peptide (FMOC chemistry), purified by LC/MS
B5: FGFR1 (Y463) phosphopeptide GVSEpYELPEDP, Rhodamine B-labelled (peptide)
peptide: GVSE[pY]ELPEDP
modifications: not fully specified (N-terminus); also: Rhodamine B label, site not given here
notes: FGFR1 around Y463; also called FGFR1 pY-463; source: synthetic peptide (FMOC chemistry), purified by LC/MS
B6: FGFR3 (Y760) phosphopeptide STDEpYLDLSAP, Rhodamine B-labelled (peptide)
peptide: STDE[pY]LDLSAP
modifications: also: Rhodamine B label, site not given here
notes: FGFR3 around Y760; source: synthetic peptide (FMOC chemistry), purified by LC/MS
B7: p62DOK1 (Y398) phosphopeptide KEEGpYELPYNP, Rhodamine B-labelled (peptide)
peptide: KEEG[pY]ELPYNP
modifications: not fully specified (N-terminus); also: Rhodamine B label, site not given here
notes: p62DOK1 around Y398; source: synthetic peptide (FMOC chemistry), purified by LC/MS

Experiments:
Settings in all cases: both partners purified
GST-Yes SH2 domain = molecular target: T10, GST-Yes SH2 domain (human, UniProt P07947 158-255); test: peptide or protein array; SPOT array of 192 membrane-bound 11-mer phosphotyrosine peptides; GST-SH2 0.25 uM in TBS-T with 5% nonfat milk and 1 mM DTT, 1.5 h, room temperature; anti-GST and Alexa-Fluor-680 secondary, Li-Cor Odyssey; array positive >3X the array mean, array negative <1X, indeterminate between
T10 construct: SH2 domain of the kinase Yes; source: E. coli BL21, purified (glutathione sepharose, NAP-10)
T10 sequence (P07947 158-255): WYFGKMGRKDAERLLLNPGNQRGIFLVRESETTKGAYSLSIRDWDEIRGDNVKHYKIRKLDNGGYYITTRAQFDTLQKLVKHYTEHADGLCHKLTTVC

GST-Crk SH2 domain = molecular target: T11, GST-Crk SH2 domain (human, UniProt P46108 13-118); test: fluorescence polarisation; Rhodamine B-labelled peptide in solution with SH2 domain; Beacon 2000; as previously described [40]
T11 construct: SH2 domain of Crk; source: E. coli BL21, purified (glutathione sepharose, NAP-10)
T11 sequence (P46108 13-118): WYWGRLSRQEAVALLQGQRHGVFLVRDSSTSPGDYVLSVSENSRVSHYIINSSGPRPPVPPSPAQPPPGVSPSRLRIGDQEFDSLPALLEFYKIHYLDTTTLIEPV

GST-Abl2 SH2 domain = molecular target: T1, GST-Abl2 SH2 domain; test: as above
GST-CrkL SH2 domain = molecular target: T12, GST-CrkL SH2 domain (human, UniProt P46109 14-102); test: as above
T12 construct: SH2 domain of CrkL; source: E. coli BL21, purified (glutathione sepharose, NAP-10)
T12 sequence (P46109 14-102): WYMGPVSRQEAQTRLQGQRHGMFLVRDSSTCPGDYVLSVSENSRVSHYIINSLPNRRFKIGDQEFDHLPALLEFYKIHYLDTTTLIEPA

GST-Ship2 SH2 domain = molecular target: T2, GST-Ship2 SH2 domain; test: as above
GST-Shc1 SH2 domain = molecular target: T3, GST-Shc1 SH2 domain; test: as above
GST-Nck1 SH2 domain = molecular target: T13, GST-Nck1 SH2 domain (human, UniProt P16333 282-376); test: as above
T13 construct: SH2 domain of Nck1; source: E. coli BL21, purified (glutathione sepharose, NAP-10)

GST-Grb2 SH2 domain = molecular target: T14, GST-Grb2 SH2 domain (human, UniProt P62993 60-152); test: as above
T14 construct: SH2 domain of Grb2; source: E. coli BL21, purified (glutathione sepharose, NAP-10)
T14 sequence (P62993 60-152): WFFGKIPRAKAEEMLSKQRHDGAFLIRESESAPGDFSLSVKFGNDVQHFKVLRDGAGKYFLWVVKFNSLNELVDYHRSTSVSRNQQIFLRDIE

GST-Src SH2 domain = molecular target: T15, GST-Src SH2 domain (human, UniProt P12931 151-248); test: as above
T15 construct: SH2 domain of Src; source: E. coli BL21, purified (glutathione sepharose, NAP-10)

GST-Tenc1 SH2 domain = molecular target: T4, GST-Tenc1 SH2 domain; test: as above
GST-Abl1 SH2 domain = molecular target: T5, GST-Abl1 SH2 domain; test: as above
GST-Sh2b SH2 domain = molecular target: T16, GST-Sh2b SH2 domain (human, UniProt Q9NRF2 527-625); test: as above
T16 construct: SH2 domain of Sh2b; source: E. coli BL21, purified (glutathione sepharose, NAP-10)

GST-Vav1 SH2 domain = molecular target: T6, GST-Vav1 SH2 domain; test: as above
GST-Sh2d1b SH2 domain = molecular target: T7, GST-Sh2d1b SH2 domain; test: as above
GST-Shb SH2 domain = molecular target: T17, GST-Shb SH2 domain (human, UniProt Q15464 410-504); test: as above
T17 construct: SH2 domain of Shb; source: E. coli BL21, purified (glutathione sepharose, NAP-10)
T17 sequence (Q15464 410-504): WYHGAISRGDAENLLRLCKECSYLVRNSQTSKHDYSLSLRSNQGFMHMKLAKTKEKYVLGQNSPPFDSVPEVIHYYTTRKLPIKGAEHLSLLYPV

GST-Sh3bp2 SH2 domain = molecular target: T8, GST-Sh3bp2 SH2 domain; test: as above
GST-Fgr SH2 domain = molecular target: T18, GST-Fgr SH2 domain (human, UniProt P09769 144-241); test: as above
T18 construct: SH2 domain of Fgr; source: E. coli BL21, purified (glutathione sepharose, NAP-10)

GST-Brk SH2 domain = molecular target: T19, GST-Brk SH2 domain (human, UniProt Q13882 78-170); test: as above
T19 construct: SH2 domain of Brk; source: E. coli BL21, purified (glutathione sepharose, NAP-10)
T19 sequence (Q13882 78-170): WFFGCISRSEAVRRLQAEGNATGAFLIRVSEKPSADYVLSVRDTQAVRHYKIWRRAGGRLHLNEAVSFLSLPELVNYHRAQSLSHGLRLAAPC

GST-Fer SH2 domain = molecular target: T20, GST-Fer SH2 domain (human, UniProt P16591 460-550); test: as above
T20 construct: SH2 domain of Fer; source: E. coli BL21, purified (glutathione sepharose, NAP-10)
T20 sequence (P16591 460-550): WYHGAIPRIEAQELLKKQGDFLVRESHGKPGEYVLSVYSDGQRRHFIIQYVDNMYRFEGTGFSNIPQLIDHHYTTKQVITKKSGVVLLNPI

GST-Itk SH2 domain = molecular target: T9, GST-Itk SH2 domain; test: as above

Row | Binder | Kd (GST-Crk SH2 domain) | Kd (GST-Abl2 SH2 domain) | Kd (GST-CrkL SH2 domain) | Kd (GST-Nck1 SH2 domain) | Kd (GST-Src SH2 domain) | Kd (GST-Abl1 SH2 domain) | also measured
1 | B1 | – | – | – | – | – | – | binding result (GST-Yes SH2 domain): binds
2 | B2 | 0.35 µM | 14 µM | 0.99 µM | 0.93 µM | – | – | Kd (GST-Ship2 SH2 domain): 16.5 µM; Kd (GST-Shc1 SH2 domain): 32.8 µM
3 | B3 | > 20 µM | 3.66 µM | – | – | 2.21 µM | 7.48 µM | Kd (GST-Grb2 SH2 domain): 0.8 µM; Kd (GST-Tenc1 SH2 domain): 24 µM; Kd (GST-Sh2b SH2 domain): 3.58 µM
4 | B4 | – | – | > 50 µM | – | 9.94 µM | 22.2 µM | Kd (GST-Grb2 SH2 domain): > 50 µM
5 | B5 | 44 µM | – | > 50 µM | 2.45 µM | 6.85 µM | – | Kd (GST-Vav1 SH2 domain): 1.87 µM
6 | B6 | – | 27 µM | – | – | – | – | Kd (GST-Sh2d1b SH2 domain): 5.3 µM; Kd (GST-Shb SH2 domain): > 50 µM
7 | B7 | 23.7 µM | 3.47 µM | – | 4.37 µM | 5.06 µM | 5.77 µM | Kd (GST-Vav1 SH2 domain): 4.73 µM; Kd (GST-Sh3bp2 SH2 domain): 1.68 µM; Kd (GST-Fgr SH2 domain): 2.04 µM; Kd (GST-Brk SH2 domain): 0.42 µM; Kd (GST-Fer SH2 domain): 13.3 µM; Kd (GST-Shc1 SH2 domain): 5.74 µM; Kd (GST-Itk SH2 domain): 5.43 µM
